Holding throughout (assay): pull-down
For assay [1], the target named is GST fusion with DNA-PKcs fragment H2 (a.a. 3747-4097) (human, UniProt P78527 3747-4097).
Assay [2] concerns the target GST fusion with the C-terminal DNA-PKcs fragment H (a.a. 3747-4128) (human, UniProt P78527 3747-4128).
The target of assay [3] is hnRNP-A1 N-terminal RRMs fragment (a.a. 1-188) (UniProt P09651-2 1-188).

GST fusion with DNA-PKcs fragment H2 (a.a. 3747-4097), sequence (P78527 3747-4097): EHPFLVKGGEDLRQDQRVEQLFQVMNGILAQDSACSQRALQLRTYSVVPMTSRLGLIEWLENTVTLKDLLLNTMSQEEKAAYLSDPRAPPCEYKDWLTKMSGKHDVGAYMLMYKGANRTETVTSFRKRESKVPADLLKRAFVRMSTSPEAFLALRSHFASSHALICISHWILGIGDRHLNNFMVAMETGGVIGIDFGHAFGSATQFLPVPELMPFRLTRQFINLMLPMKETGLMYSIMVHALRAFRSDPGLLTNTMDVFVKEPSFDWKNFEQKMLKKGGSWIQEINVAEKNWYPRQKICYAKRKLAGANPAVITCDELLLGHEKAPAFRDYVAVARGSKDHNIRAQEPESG

B1: His-tagged full-length hnRNP-A1 (recombinant, wild type) (natural protein, UniProt P09651-2 1-320, looked up)
chain: MSKSESPKEPEQLRKLFIGGLSFETTDESLRSHFEQWGTLTDCVVMRDPNTKRSRGFGFVTYATVEEVDAAMNARPHKVDGRVVEPKRAVSREDSQRPGAHLTVKKIFVGGIKEDTEEHHLRDYFEQYGKIEVIEIMTDRGSGKKRGFAFVTFDDHDSVDKIVIQKYHTVNGHNCEVRKALSKQEMASASSSQRGRSGSGNFGGGRGGGFGGNDNFGRGGNFSGRGGFGGSRGGGGYGGSGDGYNGFGNDGSNFGGGGSYNDFGNYNNQSSNFGPMKGGNFGGRSSGPYGGGGQYFAKPRNQGGYGGSSSSSSYGSGRRF
On to B1, for which the binding result in assay [1] and in assay [2] was “binds” each time.

B2: GST fusion with DNA-PKcs fragment H3 (a.a. 4036-4128) (domain or fragment, human, UniProt P78527 4036-4128, looked up)
chain: KNWYPRQKICYAKRKLAGANPAVITCDELLLGHEKAPAFRDYVAVARGSKDHNIRAQEPESGLSEETQVKCLMDQATDPNILGRTWEGWEPWM
B2: the binding result in assay [3] is “binds”.

The values above are taken from paper PMC4499152 (Nucleic Acids Research, 2015).
